Measured values taken from publication PMC6811359.

Columns and labels:
[1] = target: isolated LOV domain of PAL (Nakamurella multipartita); assay: SEC
[2] = target: isolated LOV domain of PAL (Nakamurella multipartita); assay: SEC-MALS
[3] = target: PAL, light-oxygen-voltage (LOV) receptor from Nakamurella multipartita (Nakamurella multipartita); assay: SEC
[4] = target: PAL, light-oxygen-voltage (LOV) receptor from Nakamurella multipartita (Nakamurella multipartita); assay: SEC-MALS

Row | Substance | stoichiometry N [1] | stoichiometry N [2] | stoichiometry N [3] | stoichiometry N [4]
1 | isolated LOV domain of PAL (domain or fragment) | 2 | 2 |  | 
2 | PAL, light-oxygen-voltage (LOV) receptor from Nakamurella multipartita (natural protein) |  |  | 2 | 2
